The values that follow come from publication PMC8960830.

Data set [1] concerns S9.6 Fab WT, PDB:7TQB_1+PDB:7TQB_2. Briefly: fluorescence polarization. The conditions noted are these: FP: 25 mM Tris-HCl pH 7.5, 50 mM NaCl, 2 mM MgCl2, 21 C, ~5 nM FAM duplex, ITC same buffer at 25 C, SEC-MALS 150 mM NaCl. Background: In fluorescence polarisation assays a small probe gives low polarisation when free and higher when bound to something large.
For data set [2] the test system is unchanged. The experiment in a line: fluorescence polarization. The conditions noted are these: FP: 25 mM Tris-HCl pH 7.5, 50 mM NaCl, 2 mM MgCl2, 21 C, ~5 nM FAM duplex, ITC same buffer at 25 C, SEC-MALS 150 mM NaCl. This is another data set of the same source.
Data set [3] has the same test system. Briefly: ITC. The conditions noted are these: 2 mM Mg2+, 25 C; FP: 25 mM Tris-HCl pH 7.5, 50 mM NaCl, 2 mM MgCl2, 21 C, ~5 nM FAM duplex; ITC same buffer at 25 C; SEC-MALS 150 mM NaCl.
Data set [4] shares this test system. The experiment in a line: competition. The conditions noted are these: FP: 25 mM Tris-HCl pH 7.5, 50 mM NaCl, 2 mM MgCl2, 21 C, ~5 nM FAM duplex; ITC same buffer at 25 C; SEC-MALS 150 mM NaCl.
Data set [5] has as its system S9.6 Fab HC_Y101F, PDB:7TQB_1+PDB:7TQB_2. Briefly: fluorescence polarization. The conditions noted are these: FP: 25 mM Tris-HCl pH 7.5, 50 mM NaCl, 2 mM MgCl2, 21 C, ~5 nM FAM duplex; ITC same buffer at 25 C; SEC-MALS 150 mM NaCl.
Data set [6] relates to S9.6 Fab HC_Y54G, PDB:7TQB_1+PDB:7TQB_2. The experiment in a line: fluorescence polarization. The conditions noted are these: FP: 25 mM Tris-HCl pH 7.5, 50 mM NaCl, 2 mM MgCl2, 21 C, ~5 nM FAM duplex; ITC same buffer at 25 C; SEC-MALS 150 mM NaCl.
The test system of data set [7] is S9.6 Fab HC_S31A, PDB:7TQB_1+PDB:7TQB_2. Briefly: fluorescence polarization. The conditions noted are these: FP: 25 mM Tris-HCl pH 7.5, 50 mM NaCl, 2 mM MgCl2, 21 C, ~5 nM FAM duplex; ITC same buffer at 25 C; SEC-MALS 150 mM NaCl.
Data set [8] concerns S9.6 Fab HC_S31G, PDB:7TQB_1+PDB:7TQB_2. Briefly: fluorescence polarization. The conditions noted are these: FP: 25 mM Tris-HCl pH 7.5, 50 mM NaCl, 2 mM MgCl2, 21 C, ~5 nM FAM duplex; ITC same buffer at 25 C; SEC-MALS 150 mM NaCl.
Data set [9] concerns S9.6 Fab HC_Y32A, PDB:7TQB_1+PDB:7TQB_2. The experiment in a line: fluorescence polarization. The conditions noted are these: FP: 25 mM Tris-HCl pH 7.5, 50 mM NaCl, 2 mM MgCl2, 21 C, ~5 nM FAM duplex; ITC same buffer at 25 C; SEC-MALS 150 mM NaCl.
Data set [10] concerns S9.6 Fab HC_Y54A, PDB:7TQB_1+PDB:7TQB_2. Briefly: fluorescence polarization. The conditions noted are these: FP: 25 mM Tris-HCl pH 7.5, 50 mM NaCl, 2 mM MgCl2, 21 C, ~5 nM FAM duplex; ITC same buffer at 25 C; SEC-MALS 150 mM NaCl.
The subject of data set [11] is S9.6 Fab HC_Y54D, PDB:7TQB_1+PDB:7TQB_2. Briefly: fluorescence polarization. The conditions noted are these: FP: 25 mM Tris-HCl pH 7.5, 50 mM NaCl, 2 mM MgCl2, 21 C, ~5 nM FAM duplex; ITC same buffer at 25 C; SEC-MALS 150 mM NaCl.
The test system of data set [12] is S9.6 Fab HC_Y54F, PDB:7TQB_1+PDB:7TQB_2. The experiment in a line: fluorescence polarization. The conditions noted are these: FP: 25 mM Tris-HCl pH 7.5, 50 mM NaCl, 2 mM MgCl2, 21 C, ~5 nM FAM duplex; ITC same buffer at 25 C; SEC-MALS 150 mM NaCl.
Data set [13] relates to S9.6 Fab HC_Y54H, PDB:7TQB_1+PDB:7TQB_2. The experiment in a line: fluorescence polarization. The conditions noted are these: FP: 25 mM Tris-HCl pH 7.5, 50 mM NaCl, 2 mM MgCl2, 21 C, ~5 nM FAM duplex; ITC same buffer at 25 C; SEC-MALS 150 mM NaCl.
The subject of data set [14] is S9.6 Fab HC_Y54Q, PDB:7TQB_1+PDB:7TQB_2. Briefly: fluorescence polarization. The conditions noted are these: FP: 25 mM Tris-HCl pH 7.5, 50 mM NaCl, 2 mM MgCl2, 21 C, ~5 nM FAM duplex; ITC same buffer at 25 C; SEC-MALS 150 mM NaCl.
The test system of data set [15] is S9.6 Fab HC_Y54R, PDB:7TQB_1+PDB:7TQB_2. The experiment in a line: fluorescence polarization. The conditions noted are these: FP: 25 mM Tris-HCl pH 7.5, 50 mM NaCl, 2 mM MgCl2, 21 C, ~5 nM FAM duplex; ITC same buffer at 25 C; SEC-MALS 150 mM NaCl.
The subject of data set [16] is S9.6 Fab HC_Y54W, PDB:7TQB_1+PDB:7TQB_2. Briefly: fluorescence polarization. The conditions noted are these: FP: 25 mM Tris-HCl pH 7.5, 50 mM NaCl, 2 mM MgCl2, 21 C, ~5 nM FAM duplex; ITC same buffer at 25 C; SEC-MALS 150 mM NaCl.
For data set [17], the system named is S9.6 Fab HC_Y54L, PDB:7TQB_1+PDB:7TQB_2. The experiment in a line: fluorescence polarization. The conditions noted are these: FP: 25 mM Tris-HCl pH 7.5, 50 mM NaCl, 2 mM MgCl2, 21 C, ~5 nM FAM duplex; ITC same buffer at 25 C; SEC-MALS 150 mM NaCl.
The subject of data set [18] is S9.6 Fab HC_Y54M, PDB:7TQB_1+PDB:7TQB_2. Briefly: fluorescence polarization. The conditions noted are these: FP: 25 mM Tris-HCl pH 7.5, 50 mM NaCl, 2 mM MgCl2, 21 C, ~5 nM FAM duplex; ITC same buffer at 25 C; SEC-MALS 150 mM NaCl.
Data set [19] concerns S9.6 Fab HC_Y54V, PDB:7TQB_1+PDB:7TQB_2. The experiment in a line: fluorescence polarization. The conditions noted are these: FP: 25 mM Tris-HCl pH 7.5, 50 mM NaCl, 2 mM MgCl2, 21 C, ~5 nM FAM duplex; ITC same buffer at 25 C; SEC-MALS 150 mM NaCl.

Where only a bound is given, the exact number is not on record here.

In [1], “CAGACAGACA / UGUCUGUCUG [10-bp hybrid 50% GC]” gave a Kd of 3110 nM.

In the case of “CAGACGGACA / UGUCCGUCUG [10-bp hybrid 60% GC]”, in [1], the dissociation constant Kd came out at 610 nM.

The sequence “CGGACGGACA / UGUCCGUCCG [10-bp hybrid 70% GC]” gave a Kd in data set [1] of 420 nM.

The sequence “CGGACGGACG / CGUCCGUCCG [10-bp hybrid 80% GC]” showed an equilibrium dissociation constant (Kd) in data set [1] of 570 nM.

In the case of “CGGCCGGACG / CGUCCGGCCG [10-bp hybrid 90% GC]”, the Kd in data set [1] came out at 1020 nM.

Sequence “CGTGTCAGACAAG / CTTGTCUGACACG [13-bp dsDNA with 2'-OH at U7-G8-A9]” yielded an equilibrium dissociation constant (Kd) in [2] (text: Kd > 7 uM, weakly bound, strand 2: ribonucleotides at positions 7-9, rest DNA) of 7000 nM. This counts as single-digit micromolar.

CGTGTCAGACAAG / CTUGUCUGACACG had a Kd in [2] (table fit 20.6 +/- 5.8 uM, RNA strand: deoxy at positions 2, 4, 6, 8, 10, 12 (12 inferred, name is cut in the material)) of more than 21000 nM.

In turn, CGTGTCAGACAAG / CUTGUCUGACACG displayed a Kd in data set [2] (RNA strand: deoxy at positions 3, 6, 9, 12) of 380 nM. This counts as sub-micromolar.

Regarding “CGTGTCAGACAAG / CUUGUCUGACACG [13-bp DNA-RNA hybrid]”, the Kd in data set [3] came to 415 nM; in data set [2] (2 mM Mg2+), 232 nM; in data set [7] it was 140 nM; in data set [8], 170 nM; in data set [9], 25400 nM; in data set [10], 2650 nM. The Kd in [11] stood at 5160 nM; in [12] it was 400 nM; in data set [13] it was 360 nM; in data set [14], 730 nM; in [15], 150 nM; in [16], 760 nM. In [1] (2 mM Mg2+), this sequence gave a dissociation constant Kd of 190 nM. The same sequence registered an IC50 in data set [4] of 450 nM. The same sequence returned a binding signal (fold lower binding than WT) in [5] of less than 2. In addition, the binding signal (fold lower affinity than WT) in data set [6] came to 58.

In [1], “CGTGTCTGACAAG / CUUGUCAGACACG [13-bp hybrid rU7A:dA7T]” registered a Kd of 110 nM.

As to “CGTGUCAGACAAG / CUUGUCUGACACG [13-bp hybrid, 2'-OH (uridine) at dT5]”, the dissociation constant (Kd) in data set [1] (DNA strand: ribo-U at position 5) was found to be 140 nM.

In data set [1] (DNA strand: ribonucleotides at positions 3-7), “CGUGUCAGACAAG / CUUGUCUGACACG [13-bp hybrid, 2'-OH at dT3-dG4-dT5-dC6-dA7]” came in with a dissociation constant (Kd) of 100 nM. In other words, the sub-micromolar range.

In data set [4], “CUUGUCUGACACG / CGUGUCAGACAAG [13-bp dsRNA]” showed an IC50 of 57000 nM. Moreover, the dissociation constant Kd was 3790 nM in [2] (2 mM Mg2+); 2350 nM in data set [10]; 8300 nM in data set [12]; 4300 nM in [13]; 3990 nM in data set [17]; 4530 nM in [18]. For the same sequence, the Kd in [14] stood at 1640 nM; in data set [15] it was 1910 nM; in data set [19], 1610 nM; in data set [16], 11800 nM.

As a reminder, the Kd is the free concentration of one partner at which half of the binding sites on the other are occupied at equilibrium, for simple one-to-one binding. A higher Kd goes with weaker binding. For orientation: IC50 means the midpoint of a concentration-inhibition curve. Lower therefore signals greater potency.
